T1: Glycoprotein of Marburg virus isolate Musoke in whole irradiated virus (Marburg virus, isolate Musoke, UniProt P35253 19-681)
T1 sequence: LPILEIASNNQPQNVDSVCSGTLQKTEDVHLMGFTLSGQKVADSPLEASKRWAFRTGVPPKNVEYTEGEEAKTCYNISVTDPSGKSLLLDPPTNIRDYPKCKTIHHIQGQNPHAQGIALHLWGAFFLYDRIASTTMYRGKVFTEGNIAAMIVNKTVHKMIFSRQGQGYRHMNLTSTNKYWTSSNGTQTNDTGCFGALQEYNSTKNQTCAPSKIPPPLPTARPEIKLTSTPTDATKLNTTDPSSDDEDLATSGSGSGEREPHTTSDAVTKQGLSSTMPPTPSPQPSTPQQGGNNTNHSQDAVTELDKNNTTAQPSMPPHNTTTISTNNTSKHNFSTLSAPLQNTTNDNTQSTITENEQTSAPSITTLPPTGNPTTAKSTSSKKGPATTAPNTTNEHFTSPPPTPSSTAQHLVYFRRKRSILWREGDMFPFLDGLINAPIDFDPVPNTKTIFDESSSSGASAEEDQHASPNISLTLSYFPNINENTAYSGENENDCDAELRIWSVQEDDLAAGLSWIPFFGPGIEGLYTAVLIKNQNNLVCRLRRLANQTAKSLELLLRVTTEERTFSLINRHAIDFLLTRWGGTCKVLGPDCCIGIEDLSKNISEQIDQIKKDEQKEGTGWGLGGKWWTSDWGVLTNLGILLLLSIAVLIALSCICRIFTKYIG

T2: Glycoprotein of Ravn virus in whole irradiated virus (Ravn virus, UniProt Q1PDC7 19-681)
T2 sequence: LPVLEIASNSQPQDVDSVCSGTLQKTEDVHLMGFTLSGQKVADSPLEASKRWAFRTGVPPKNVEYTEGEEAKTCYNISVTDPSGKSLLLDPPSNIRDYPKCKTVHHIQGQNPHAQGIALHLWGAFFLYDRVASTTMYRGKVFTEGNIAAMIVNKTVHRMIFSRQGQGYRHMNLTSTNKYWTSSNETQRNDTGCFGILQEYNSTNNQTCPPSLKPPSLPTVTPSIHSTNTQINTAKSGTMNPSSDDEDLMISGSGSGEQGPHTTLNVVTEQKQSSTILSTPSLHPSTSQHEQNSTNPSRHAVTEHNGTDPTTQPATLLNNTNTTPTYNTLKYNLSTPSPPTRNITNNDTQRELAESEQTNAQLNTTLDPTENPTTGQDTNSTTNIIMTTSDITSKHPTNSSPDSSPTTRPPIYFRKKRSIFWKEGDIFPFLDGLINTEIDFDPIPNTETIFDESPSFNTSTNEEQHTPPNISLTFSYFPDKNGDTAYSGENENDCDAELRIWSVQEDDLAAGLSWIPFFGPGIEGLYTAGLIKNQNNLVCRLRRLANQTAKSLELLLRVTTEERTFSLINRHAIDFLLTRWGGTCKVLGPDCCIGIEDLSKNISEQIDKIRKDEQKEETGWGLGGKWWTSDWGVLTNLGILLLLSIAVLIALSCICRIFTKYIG


Columns and labels:
[1] = target: MARV Ci67 GP1-649 (Marburg virus, isolate Ci67); experiment: SPR (BIAcore 3000), GP1-649 amine-coupled on CM5, scFv in solution
[2] = target: T1, Glycoprotein of Marburg virus isolate …; experiment: Western blot of scFv-Fc on whole irradiated virus, reduced
[3] = target: T2, Glycoprotein of Ravn virus in whole …; experiment: Western blot on whole irradiated virus, reduced

Binder	Kd [1] [nM]	koff [1] [s⁻¹]	kon [1] [M⁻¹ s⁻¹]	binding result [2]	binding result [3]
scFv R3C4 (scFv, V domains shown) VH: QVQLEQSGAEVKKPGASVKVSCKASGFTSGSYAISWVRQAPGQGLEWMGVIIPLVGVTNYAEKFQGRVTFTADTSTSTAYMELSSLRSEDTATYFCARDPYCSGNGCYGWYDVWGPGVLVTVSS VL: DIELTQSPSSLSASVGDKVTISCRASQYIKSWLAWYQQKPGKAPKLLIYKASSLQSGVPSRFSGSGSGTDFTLTITNVQPEDFATYYCQQYDSAPFTFGPGTKLDIR	33	0.000386	11600		
R4B11 scFv-Fc (Fc fusion) VH: QVQLEQSGAEVREPGASVKVSCKASGLTSGSYAITWVRQAPGQGLEWMGVIIPLVGVTNYAEKFQGRVTFTADTSTSTAYMELTSLRSDDTATYYCARDPFCSGNGCYGYYDVWGPGVKVTVSS VL: DIELTQSPSSLSASVGDRVTITCRASQDISSWLAWYQQKPGKAPKLLISSASTLQSGVPSRFSGSGSGTDFTLTINSLQSEDFATYYCQQYNSVPLTFGGGTKVEMK				binds	no binding (tested: 1 ug/ml)
scFv R4B11 (scFv, V domains shown) VH: QVQLEQSGAEVREPGASVKVSCKASGLTSGSYAITWVRQAPGQGLEWMGVIIPLVGVTNYAEKFQGRVTFTADTSTSTAYMELTSLRSDDTATYYCARDPFCSGNGCYGYYDVWGPGVKVTVSS VL: DIELTQSPSSLSASVGDRVTITCRASQDISSWLAWYQQKPGKAPKLLISSASTLQSGVPSRFSGSGSGTDFTLTINSLQSEDFATYYCQQYNSVPLTFGGGTKVEMK	4.6	0.000407	87600		
scFv R4G7 (scFv, V domains shown) VH: EVQLLESGGDLVQPGESLRLSCVVSGISFSNHGMTWVRQAPGKGLDWVSSIDSDGGGTFYADSVKGRFTISRDDSNNTVSLQMNSLRVEDTAVYYCAARHEYSDYYWGRGVPVTVSS VL: DIELTQSPSILSVSPGERATLSCRASQSVGNRLAWYHQRPGQAPRLLIYGASSRPTGIPDRFSASGSGTEFTLTISSLEPEDVGVYYCQQNSKWPLTFGGGTKVEIK	4.6	0.000379	81900		
scFv R4G8 (scFv, V domains shown) VH: EVQLVESGGGLVQPGESLRLSCVVSGLSFSNHGVTWVRQAPGKGLDWVSSIDTDGGGTFYGDSVKGRFTISRDNSKSTVSLEMNSLRVEDTAVYYCAARQEYSDYYWGRGVLVTVSS VL: DIELTQSPAILSLSPGERATLLCRASQNVGNRLAWYHQRPGQAPRLLIYGASSRPTGIPDRFSGSGSGTEFTLTISSLEPEDVGVYYCQQDSNWPLTFGGGTRVEIK	68	0.0063	92300		
scFv R3H2 (scFv, V domains shown) VH: EVQLLESGGGLVQPGESLRLSCVVSGLSFSNHGVTWVRQAPGKGLDWVSSIDTDGGGTFYGDSVKGRFTISRDDSKNTVSLEMNSLRVEDTAVYYCAARQEYSDYYWGRGVPVTVSS VL: DIELTQSPAILSLSPGERATLLCRASQNVGNRLAWYHQRPGQAPRLLIYGASSRPTGIPDRFSGSGSGTEFTLTISSLEPEDVGVYYCQQDSNWPLTFGGGTRVEIK	155	0.000993	6390		
scFv R4H12 (scFv, V domains shown) VH: QVQLLESGGGLVQPGESLRLSCVVSGLSFSNHGVTWVRQAPGKGLDWVSSIDTDGGGTFYGDSVKGRFTISRDDSKNTVSLEMNSLRVEDTAVYYCAARQEYSDYYWGRGVPVTVSS VL: EIELTQSPSTLSVSPGERATLSCRASQSVGSRLAWYHQSPGQAPRLLIYGASSRPTGIPDRFSASGSGTEFTLTISSLEPEDVGLYYCQQNSKWPLTFGGGTKVEIK	3.9	0.000565	146000		
scFv R4G11 (scFv, V domains shown) VH: EVQLVQSGGGLVQPGESLRLSCVVSGLSFSNHGVTWVRQAPGKGLDWVSSIDTDGGGTFYGDSVKGRFTISRDDSKNTVSLEMNSLRVEDTAVYYCAARQEYSDYYWGRGVPVTVSS VL: DIELTQSPSTLSVSPGERATLSCRASQSVGSRLAWYHQRPGQAPRLLIYGASSRPTGIPDRFSGSGSGTEFTLTISSLEPEDVGLYYCQQNSKWPLTFGGGTKVEIK	6.3	0.000475	75000		
